Test: yeast display, Sf9 membrane polyspecificity reagent, FACS + sequencing; frameworks hold sequencing errors
Procedure, shortened: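 Genes from sorted yeast were amplified by colony PCR, read by MiSeq 2 × 250 sequencing and filtered on CDR length. These cells carried a synthetic nanobody library in Saccharomyces cerevisiae BJ5465 and were sorted by FACS into low and high (top ~1%) gates on anti-HA and streptavidin fluorescence. Polyreactivity is labelled according to the gate of origin.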

Row | Sequence | polyreactivity (PSR sort gate)
1 | QVQLVESGGGLVQAGGSLRLSCAASGSIFGGNAMGWYRQAPGKERELVATITDRGSSTYYADSVKGRFTISRDNAKNTVYLQMNSLKPEDTAVYYCATAFPDVPEPDYWGQGAQVTVSS | low polyreactivity
2 | QVQLVESGGGLVQAGGSLRLSCAASGRTFKINAMGWYRQAPGKERELVAAIRRRGGSTYYADSVKGRFTISRDNAKNTVYLQMNSLKPEDTAVYYCAKTSWPYRVPSDSVAYDYWGQGTQVTVSS | low polyreactivity
3 | QVQLVESGGGLVQAGGSLRLSCAASGSIFGRNAMGWYRQEPGKERELVARISYIGGSTYYADSVKGRFTISRDNAKNTVYLQMNSLKPEDTAVYYCAKRYGFRYKRMDYWGQGTQVTVSS | low polyreactivity
4 | QVQLGESGGGLVQAGGSLRLICAASGRIFYRNAMGWYRQAPGKERELVAGISNRGGSTYYADSVKGRFTISRDNAKNTVYLQMNSLKPEDTAVYYCATVPFSPPSAGPEYDYWGQGTQVTVSS | high polyreactivity
5 | QVQLVESGGGLVQAGGSLRLSCAASGRTFNRNTMGWYRQAPGKERELVAGITKRGGSTYYADSVKGRFTISRDNAKNTVYLQMNSLKPEDTAVYYCNAATNGSPPDYDYWGQGTQVNVSS | high polyreactivity
6 | QVQLVESGGGLVQVGGSLRLSCAASGGIFCGNSMGWYRQAPGKERDLVAAISWDASTYYEDTVKGRFTISRDNAMNTVYLQMNSLKPEDTAVYYCNADIPYYFVYDAYDYWGQGTQVNVSS | low polyreactivity
7 | QVQLVESGGGLVQAGGSLRLSCAASGFIFEWNGMGWYRQAPGKERELVAAITWSGGSTYYADSVKGRFTISRDNAKNTVYLQMNSLKPEDTAVYYCNAYWKDDFEDGPGRRGMDYWGQGTQVTVSS | low polyreactivity
8 | QVQLVESGGGLVQAGASLRLSCAASGIILGSYAMGWYRQAPAKERELVAGITSGGGKYYADSVKGRFTISRDNAKNTVYLQMNSMKPEYTAVYYCAKLYFHYYRYGYWGQGTQVTVSS | low polyreactivity
9 | QVQLVESGGGLVQAGGSLRLSCAASGRTFWYYGMGWYRQAPGKERELVAAIRGSGGSTYYADSVKGRFTISRDNAKNTVYLQMNSLKPEDTAVYYCAKRSYIRPKYTYEYWGQGTQVTVSS | high polyreactivity
10 | QVQLVESGGGLVQAGGSLRLSCAASGAIFQPYGMGGYSQAPGKERELVAAISRGGTTYYADSVTGRFTISRANAKNTDYLQMNSLKPEETAVYYCAVKGYRYGTRYDYRGQGTQVTVSS | high polyreactivity
11 | QVQLVESGGGLVQAGGSLRLSCAASGSTFGRYVMGWYRQAPGKERELVAAISKNAGSTYYADSVKGRFTISRDNAKNTVYLQMNRLKPEDTAVYYCAADWRTKGYDSLGQGTQVTVSS | high polyreactivity
12 | QVQLVESGGGLVQAGGSLRLSCAASGSIFSENTMGWYRPAPGKKRELVADITSGGSTNYADSVKGRFTISRDNAKKTVYLQMNSLKPEDTAVYYCAADYNGEYDYWGLGTQVTVSS | low polyreactivity
13 | QVQLVESGGGLVQAGGSLRLSCAASGFTFYPNAMGWYRQAPGKEWELVAAISRSGSSTYYADSVKGRFTISRDNAKNTVYLQMNSVKPEDTAVYDCNRYGRQYDFYYWGQGTQVTVSS | high polyreactivity
14 | QVQLVESGGGLVQAGGSLRLSCAASGITFGDNDMGWYRQAPGKDRELVASISSGGSTTYADSVKGRFTISRDNAKNTVYLQMNSLKPEDTADYYCNADYGSSVEYNYWGQGTQVTVSS | low polyreactivity
15 | QVQLVESGGGLVQAGGSLRLSCAASGLILYYYTMGWYRQAPGKERELVAAINSGGNTYYADSVKGRFTISRDNAKNTVYLQMNSLKPEDTAVYYCNAYRVRYKRSYDYWGQGTQVTVSS | high polyreactivity
16 | QVQLVESGGGLVQAGGSLRLSCAASGSTFHYYAMGWYRQAPGKERELVAAISSGGRTNYADSVKGRFTISRDNAKNTVYLQMNSLKPEDTAVYYCAARWSYTKGEFDYWGQGTQGTVSS | high polyreactivity
17 | QVQLVESGGCLVQAGGSLRLRCAASGSSFAYNDMGWDRQAPGKDRELVATIRNGGSTYYADSVKGRFTISRDNAKNTVYLQRNSLKPEDTAVYYCAAVPLWDYKFCYYLLYDYWGQGTQVNVSS | low polyreactivity
18 | QVQLVESGGGLVQAGGSLRLSCAASGSTFVDNAMGWYRQAPGKEREMVAAIRYGSGGSTRYADSVKGRFTISRDNAKNTVYLQMNSLKPEDTAVYYCAADGYITVNYLRYDYWGQGTQVTVSS | low polyreactivity
19 | QVQLVESGGGLVRAGGSLRLSCAASGFVYYVMGWYRQAPGKERELVAAISKGGGRTYYADSVKGRFTISRDNAKNTVYLQMNSLKPEDTAVYYCAAAFWRITRYGMDYWGQGTQVTVSS | high polyreactivity
20 | QVHHVESGGGLVQAGGSLRLSCAASGGTFRVYTMGWYRQAPAKVRELVAAITRNGGSTYYADSVKGRFTISRDNAKNSVYVQMNSLKPDDTAVYYCAARGGVPYSHAYDYWGQGTQVTVSS | low polyreactivity
21 | QDQLVESGGGLVQAGGSLRLSCAASGFTFGYYAMGWYRQAPGKERELVAAISTRGTSTYYADSVKGRFTISRDNAKNTVYLQMNSLKPEDTAVYYCARDKATDHGYNEFDYWGQGTQVTVSS | low polyreactivity
22 | QVQLVDSGGGLVQAGGSLRLSCAASGRIFYSYAMGWYRQAPGKERELVAAISRSGGRTYYADSVKARFTISRDNAKNTVYFQMNSLKPEDTAVYYCAADGRVGEEEYWGQGTQVTVSS | high polyreactivity

Row | Sequence | polyreactivity (PSR sort gate)
23 | QVQLVESGGGLVQAGGSLRLSCAASGRIFGTNARVWYRQAPGKERELVADITSGGSTNYADSVKGRFTISRDNAKNTVYLQMNSLKPEDTAVYYCAADVIGDLRWYRDEYWGQGTQVTVSS | low polyreactivity
24 | QDQLVESGGGLVQAGGSLRLSCAASGSIFVYNTMGWYRPAPRKESDLVAAISSSGGSTYYADSVKGRYTISRDNAKNTVYLQMNSLKPEDTAVYYCAAVNGYQYPPNYYNGYDYWGQGTQVTVSS | low polyreactivity
25 | QVQLVESGGGLVQAGGSLRLSCAASGFILLDNAMGWYRQAPGKEREFVASINISGDRTFYADSVKGRFTISRDNAKNTDYLQMNSLKPEDTAVYYCNALPSEPMVYWGQGTQVTVSS | low polyreactivity
26 | QVQLVESGGGLVQAGGSLRLSCAASGNIFSWYAMGWYRQAPGKERELVAAITSGGRTYYADSVKGRFTISRDNAKNTVYLQMNSLKPEDTAVYYCNALRRRQYHDDYWGQGTQVTVSS | high polyreactivity
27 | QVQHVESVGGLVQAGGSLRLSCAASGRTLKKNAMGWYRQAPGKERELVAAISTGGRTYYADSVKGRFTISRDNAKNTVYLQMNSLKPEDTAVYYCNFQFLSWSTIWGNDYWGQGTQVTVSS | high polyreactivity
28 | QVQLVESGGGLVQAGGSLRLSCAASGSTFFRYAMGWYRQAPGKERELVAAISKSGGTTSYADSVKGRITISRDNAKNTVYLQMNSLKQEDTAVYYCAARVQHIYDWGQGTQVTVSS | high polyreactivity
29 | QVQLVESGGGLVQAGGSLRFTCAASGRTFIGYAMGWYRHAPGKERELVATISVSGGSTYYADSVKGRYTISRDNAKKTVYLHMNSLKPEDTAVYYCAKAYLRYYDGPYDYWGQGTQVTLSS | low polyreactivity
30 | QVQIVESGGGLVQAGGSLRLSCAASGITFPRYAMGWYRQAPGKESELVATITSRGGSTYYADSVKGRFTISRDNAKNTVYLQMISLKPEDTAVYYFNDRHYIFWSRYDYWGQGTQVTVSS | high polyreactivity
31 | QVQHVESGGGLVQAGGSLRLSFAASGSTFAWYPMGWYRQAPGKERELVAAITRDGSTYYADSVKGRFTISRDNAKNTVYLQMNSLKPEDTAVYYCAADLSYWRGGHSRYYWGQGTQVTVSS | low polyreactivity
32 | QVQLVESGGGLVQAGGSLRLSCAASGFTFRDYAMGWYRQAPGKEREFIADITFSGDNTRYADSVKGRFTISRDNAKNTVYLQMNSLKREDTAVYYCNADYLVSWLQFDYWGQGTQVTVSS | low polyreactivity
33 | QVQLVESGGGLVQAGGSLRLSCAASGITFVYNDMGSYRQAPGKESELVAAISWRGGSTYYADSVKGRFTISRDNAKNTVYLQMNSLKPEDTAVYYCNKLPTYPEYGYDSWGQGTQVTVSS | high polyreactivity
34 | QVQLVESWGGLVQAGGSLRLRCAASGRIFVSNAMGWYRQAPGKERELVAAISKRGASTYYADSVKGRFTISRDNAKNTVYLQMNSLKPEDTAVYYCNVVTPGGPNYDYWGQGTQVTVSS | high polyreactivity
35 | QVQLVESGGGLVQAGGSLRLSCAASGSTFRYYSMGWYRQAPGKERELVAVISKSGARTYYADSVKGRFTISRDNAKNTVYLQMNSLQPEETSVYYCNAVFKLDSHYAMCYWGQGTQVTVSS | high polyreactivity
36 | QVQLVESGGGLVQAGGSLRLSCAASGSIFKNYAMGWYRQAPGKERELVASITTGASTNYADSVKGLFTISRDNAMNTVYLQMNSLKPEDSAVYYCAAYRPTYYAYYYWGQGTQVTVSS | high polyreactivity
37 | QFQLEESGGGLVQAGGSLRLSCADSGIIFFFYAMGWYRQAPGKERELVAAISDDGVSTDYADSVKGRFTISRDNAKNTVYLQMNSLKPEDTAVYYCAAKTERVYPWFSFGYWGQGTQVTVSS | low polyreactivity
38 | QVQLVESGGGLDQAGGSLPLSCAASGFTFGHYAMGWYRQAPGKERELVAAISSGDRTYYADSVKGRFTISRDNAKNTVYLQMNSLKPEDTAVYYCAADGIYTYEYWGQGTQVTVSS | low polyreactivity
39 | QVQLVESGGGLVQAGGSLRLSCAASGGTFWVYAMGWYRQAPGKERELVAAIRWRGGRTYYADSVKGRFTISRDNAKNTVYLQMNSLKPEDTAVYYCAATTWRSGRYNYWGQGTQVTVSA | high polyreactivity
40 | QVQLVESGGGLVQAGGSLRLSCAASGRIFAFNAMGWYRQAPGTESELVAAINWSGTTTYYADSVKGRFTISRDNAKNTVYLQMNSLKPEDTAVYYCAADVTFRGYAKYYYWGQGTQVTVSS | low polyreactivity
41 | QVHLLESGGGLLQAGGSLLISCAAAGRTFGQNAMGWSRQAPGKARELVASIRSGGITDYADSVKGRYTISRDNAKYSVYLQMNSLKPEDTAVYYCNAEGVWWSTRYDSWGQGTQVTVSS | low polyreactivity
42 | QVQLVESGAGLVQAGGSLRLSCAAYGLIFTYNAMGWYRQAPWKERKLVARITSGGNTNYADSVKGRFTISRDYAKNTVYLQMNSLKPEDTAVYYCATCLYWFTNRYGYWGQGTQVTVSS | low polyreactivity
43 | QVQLVDSGGGLVQAGGSLRLSCAASGRTYFWNAMGWYRQAPGKERELVAAITWSGGSTYYADSVKGRFTISRDNAKNTVYLQMNSLKPEDTAVYYCAAVVSDYVWRYEYWGQGTQVTVSS | low polyreactivity

— the nanobody polyreactivity screen of Harvey et al. (2022)
